Measured values published in patent US20230106247A1 (L AND L BIO CO LTD NINGBO CHINA, published 2023).

Tests used:
[1] = molecular target: T1, human Sirpα-V1-his (human, UniProt P78324 31-373); assay: ELISA
T1 construct: range 31-373; Bought (Sino Biological 11612-H08H) or expressed in-house; also called hSirpα-V1; hSirpα-V1-his

[2] = molecular target: T2, human Sirpα-V1-hFc (human, UniProt P78324 31-373); assay: blocking ELISA, competitor CD47-his
T2 construct: range 31-373; also called hSirpα (dimer); hSirpα-V1-hFc (dimer); not shown: human IgG1 Fc region at the C-terminus
Experimental: The recombinant proteins such as human Sirpα-V1-hFc/Sirpα-V1-his were diluted to concentrations of 5 μg/mL or 2 μg/mL respectively with a PBS buffer at pH 7.4, and then added into a 96-well ELISA plate (Corning, CLS3590-100EA) at a volume of 50 μL/well, and placed in an incubator at 37° C. for 2 hours. After the liquid was discarded, the wells were added with a blocking solution of 5% skimmed milk (skimmed milk powder available from Bright Dairy) diluted with PBS at 230 μL/well, and incubated in an incubator at 37° C. for 3 hours, or placed overnight at 4° C. (for 16-18 hours) for blocking. […] The plate was washed for 5 times, added with 50 μL/well of streptavidin-HRP (GenScript, M00091) or anti-his-HRP secondary antibody (GenScript, A00612) diluted at 1:1000, incubated at 37° C. for 1 hour, and then washed with PBST for 5 times. Each well was added with 50 μL of TMB (Surmodic, Cat #: TTMB-1000-01) for color development, and added with 50 μL/well of 1 M H₂SO₄ to stop the reaction. The readings on a microplate reader (MultiskanGO Thermo, Model 51119200) were subjected to data analysis by GraphPad prism 5.

[3] = molecular target: human Sirpα-V2-his (human); assay: blocking ELISA, competitor CD47-his
Experimental: Specifically, the recombinant protein of human Sirpα-V2-his was diluted to a concentration of 2 μg/mL with a PBS buffer at pH7.4, then added into a 96-well ELISA plate (Corning, CLS3590-100EA) at a volume of 50 μL/well, and placed in an incubator at 37° C. for 2 hours. After the liquid was discarded, the wells were added with a blocking solution of 5% skimmed milk (skimmed milk powder available from Bright Dairy) diluted with PBS at 230 μL/well, and incubated in an incubator at 37° C. for 3 hours, or placed overnight at 4° C. (for 16-18 hours) for blocking. […] The plate was washed for 5 times, added with 50 μL/well of a streptavidin-HRP secondary antibody (GenScript, M00091) diluted at 1:1000, incubated at 37° C. for 1 hour, and then washed with PBST for 5 times. Each well was added with 50 μL TMB (Surmodic, Cat #TTMB-1000-01) for color development, and added with 50 μL/well of 1 M H₂SO₄ to stop the reaction. The readings on a microplate reader (MultiskanGO Thermo, Model: 51119200) were subjected to data analysis by GraphPad prism 5.

Chain of human Sirpα-V2-his (human) (chain, as listed by the source): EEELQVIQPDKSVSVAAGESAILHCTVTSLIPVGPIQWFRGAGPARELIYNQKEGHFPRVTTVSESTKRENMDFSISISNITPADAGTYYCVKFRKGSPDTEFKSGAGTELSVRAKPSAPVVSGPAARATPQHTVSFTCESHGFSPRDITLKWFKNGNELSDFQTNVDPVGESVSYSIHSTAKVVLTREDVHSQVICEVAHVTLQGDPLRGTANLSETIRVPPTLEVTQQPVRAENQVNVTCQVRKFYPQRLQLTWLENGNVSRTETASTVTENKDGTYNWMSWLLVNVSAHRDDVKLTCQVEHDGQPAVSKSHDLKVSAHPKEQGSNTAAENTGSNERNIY

EC50 [1]: 0.087 nM
IC50 [2]: 5.92 nM
IC50 [3]: 2.39 nM
B1: humanized antibody mab14-h16 (antibody, human IgG4 S228P, kappa, V domains shown)
VH: QVQLVQSGAEVKKPGASVKVSCKASGYNFNIYWINWVRQAPGQGLEWIGNIYPSSISTNYNEKFKTRATLTVDKSTSTVYMELSSLRSEDTAVYYCARSEGTYYGGRYEGDWFGYWGQGTLVTVSS
VL: DIQMTQSPSSLSASVGDRVTITCRASQDIRNYLNWYQQKPGKAPKLLIYFTSTLHSGVPSRFSGSGSGTDFTLTISSLQPEDFATYYCQQGNTLPWTFGGGTKVEIKR
notes: hIgG4, κ
